# From the domain aggregation screens of Martell et al. (2025)
# Test: soluble fraction after stress (log2 fold change); higher = more stays soluble; pooled small domains, quantitative proteomics
# Details: stress: pH 4
# How it was run: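 With high-throughput quantitative proteomics, pooled custom libraries of small protein domains were measured after pH 4 stress. Each domain's soluble amount after the stress gives a fold change taken as aggregation propensity. Higher log2 values mean more of the domain stayed soluble.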
row,Sequence,soluble fraction (log2)
1,HMGASIQITVNNTPVMLKNKTHYTLVDVLDFYPFDLSKMGGTELYTAINGVKSGFTDPVHANDSIEIYWI,0.196
2,HMGASSLVGRSARVLQAVTDSDGRIKLAGETWSARLAAGATSTVGPGEEVRVIAIHGATAIVAPV,0.0834
3,HMGASVGEVESVKTASEIYTAAAGKIVAVNDAVAKDPSLVNSDPYGNGWLVKLEIADLSAINA,-0.304
4,HMGAVDIATARQLISEIGLPIMLKAEGGGGGRGIFAIHNEAELEDAFFKASTMAQASFGNPRLFVEKF,-0.985
5,HMGAVFEFIMEEEEPERIDKLLSSALPDLSRSYLQKLVKEGAVLVNKKEVKPNHKVNPGDVVEISVPEPE,-0.744
6,HMGAVGISQKVTSLETAVLGKNFAKDPLIDRVARLEQTVLPKQAEANASLSLPERVSKLLEKVPIAAG,0.136
7,HMGAVPKNYFPAVEKGLQDSVQKGLLAGYPVVGVKAILYDGSYHPVDSSEMAFKTATIQAFKKGFMEA,-0.0216
8,HMGAYIPSYAPVDINAATHTVVRGDTVYNISKRYHVSQEDFRAWNGMADNTLSIGQVVKVKPAGYTAPK,0.22
9,HMGDAVSRAYFALADDLLKGELTETVSEVLIRTRYELTSAQLQAVLHRIAQEGWAHKKPGYGWEFSAMLT,-1.39
10,HMGDEHYDTISAFIKSVRGSDPDAALYWLAKMILAGEDPRFILRRLIVLSGEDIGLADPQGI,-0.346
11,HMGDEPGAGYKWREDVLLRVMSEHGIDESARDDFVRHAVKFDDDDNLYLKKAEIIAAAEAWESSS,-2.05
12,HMGDFLLQVDFPPALLEMLPEGKRQAAIGVLSHDPRPAYQRTPGRVYGLNFAGHNIRFAVSENLLTVLEV,-0.302
13,HMGDFLLTPHRGRSADFVIGNPPYIRLEDVPNDISDAYRAEYASMPGRADIHVGFYEKGLDL,-0.506
14,HMGDFVIVPDLIGKTIEEFDSELNELNLKYIISDSGNYNPDFKINSVLDQLPNANSKVKGGRKIYITLNAS,-1.48
15,HMGDGAWQQGEGGRWWYKYNNGTYPKDRVVTIGGKKYGFDSEGWMLSDTTKAFGGTTYSFAADGVATAQA,-0.247
16,HMGDGYTYYYDDTVLALGFTKIGNDYYIFNTFSGKMYKDATMWVNDNPYGIKGGMHYFDASGKMFV,-0.439
17,HMGDIFTAEDAKERIDYSGVDGIMLARGIFGNPWLIRDIREYLEYGKILHPVTQLDRVNMAIEHTRKT,-0.25
18,HMGDIMLLFKENGKVYFLVGNQYTYVKNPTELSAIKTMMKQAGYDTHEHTNTTQVAYIKRLATE,-0.419
19,HMGDKVLIQTAQRLKKDLPFASIVSRFGGDEFLIFLPGISSTERVETIVKKTVFLFIAISTTLF,-0.0999
20,HMGDLKSLIQATMDDAGISIKPDAMDYLISHLGSDRLTTRAELDKLILYAGADDKLDLDSVVELVG,-0.794
21,HMGDLLTVDRVAATSGLGVDTIRYYQRLGLLDPPVRHGRRALYSTAHLDRLVEIRQLADEGFSLAQIATL,-0.816
22,HMGDLVFDFVHGVHKAAEVEKELVMQALRFTHGNVSRAARLIGMQRSSLRYRIERYRLDAFVMEVAN,-0.0309
23,HMGDPSSERNIQKSIFILIGEKALSVQDISRSLGMPNDIIDKALISGVERNLWLSSDKGEYYL,-1.04
24,HMGDRRSVFEQSVLDAIKSLVKQGELATTKAISDHIGTNYQGNVSRAITALLADNKIKKLPKEGVLQPYEA,-0.00881
25,HMGDSFLDHKKELQSMILSRLDLSREVPDEEIKDIIDELIIAQSKKLFLSLNDRGKLRQELFYSIRK,-0.906

row,Sequence,soluble fraction (log2)
1,HMGDSVLNDKLNTLAGLDEERFKWVLASLNPNNSYSTHSDKMSALMWLVSYFNDEADLKETVPPLPI,-0.325
2,HMGDTIFINNNFYVKHIVEFGETIDIISKIYDVSVNKILETNETSTKLYSGQSLFIPININV,-1.99
3,HMGDTLEIVVIYSNKQKAEEAVNNLKGKFEDLGYNFAIITVDTSKITQLAMESSIQYIEFPKSFYFSD,-1.29
4,HMGDVATVKLDNNGLLNMRKSDARGADIVARIPNGTVVQVLNRETEWTQVRYDGKEGYVMSSFLQFAE,0.0427
5,HMGDVPESLVEKAGHSINAKIISAWGMTETGASTMTRPQDDPERAIYSDGVVLPLMDVRVVNDAGLA,-0.271
6,HMGDWEKALAQFAAHRLANGSTAFLDEMYPIFERILLQAALNKTGGRKIEAAELLGWGRNTLTRKLKELGF,-1.01
7,HMGDYERVPEYKGKLTSDLTMEDSQKFAFRFIWQNSDEDEGKIIDQDPPAGKSVAKGSEIVLYVSNG,-0.0695
8,HMGEAAIYRINILINNLNVRSGPGTLYPRLRRADFPGEYDIFEEKNGFGRISNTKSEWVSLNTQYVQRLT,0.158
9,HMGEAIPVPDLKHKALTDAEHLVHELGLEIQVVDTGYVKSLPADYILGQSLAPGEKVKSGHIIYVTINSP,0.0193
10,HMGEGTAVGKALKFLAAQGKKFAPELLDMAGSLTGVEALSKLGDAIKGDPELSELDKRILLAELETDAV,-0.744
11,HMGEIHALIPGLVSRLFVKPGDRVENGQGLLILEAMKMENEIDSPISGVVGKIYIKAGDKVEKGELIMEIN,0.115
12,HMGEIVVPDLIGKSLTEATRILSDSTLTVGKVNYQISSTLLPNTVLDQYPAPGNKLNSGNTVDLFITKE,-0.0586
13,HMGEKTLSEKVYDRLKELIMDGELERGTKITETSIAKMFDVSPTPVREAFRKLASDGLIEVASWKGVIVKG,0.338
14,HMGELYGTDQYKDGDAQDTNIGKLLEVNIDGKWQVATTGTSRFEFAGVMDDNGHKLIMISVLPEAKTV,-0.647
15,HMGEPLSPDARALTNVLRHYRGWAEPGELARKSGLGSRERVLTAAQSLVNAGLADIERGMVRPTAALMEVQ,-0.0354
16,HMGEPVASSREVAKRFGKEHKHVLAAIRQILVAENSATKFFHETAFEYRGQRFPEYLMNRDGFALLAMGF,-1.35
17,HMGEPVNSPMPGTILRVEVTQGAAVKEGQLLVVLEAMKMENEILAPKDGTVAQVVVQKGSHVETGSPLIVL,-0.429
18,HMGEQLALLERARTLLEDETLETEVQKELEMLLEDIEAARAEANATQLEDLFEELADLLFDLE,-0.193
19,HMGEQYYVLIDNKQNGPHNINAIQKMIDQNIVNRQTLIWKKGMTDWGNIMDDKDLKEMVNKIP,0.0559
20,HMGERMELTLDNPREAIPVLDAMGFANYQVVDKEHIHIFERLNESALVNMELAKAGIPVKGISITSE,-0.523
21,HMGESEWIVKWRGEKRDEERLQESELVRDDPEHRISVVRPRDDVDASAWLNRWRKSRYVQYIQPNHRVTIS,0.0349
22,HMGESFPYVAYATDSVRLRARPSSSATILTVIRKGDAVLITGADGSYKIVEYEGRKGYVVSAFLSSQET,-0.00452
23,HMGESVQVPSYVGMGFREAARKARARDFGVAVSDSIYVPGKPPGEIIAQDPKAESRVKEGRTIYFTVAK,-0.0612
24,HMGETAFRYALPLDQGEALKRSHVIRQSISPDDALATRVTVLEDVLDQTLRQPVQAGEVLLEDHFTR,-0.682
25,HMGETRWTYDDFGNILTEKAAPYSATEFLGKTYTYDTDNRYLKTVTDALGRTTTTLSYDKYGNPLSVMD,-0.357

row,Sequence,soluble fraction (log2)
1,HMGETWYEILEISSDATTEEIRQAYFEQARQYHPDTNPGELAREWFYQVQEAYETLSDPDRRRQYDESIKG,-2.16
2,HMGEVEVPDLVGIEAIQAKTLLFNSDFLIKEFYDYDPTQPIGVVIRQAPEAGTTQTIGDSVTITINRA,-0.0721
3,HMGEVISRSYPLLKTKAKPAEVSEALQKLIKAPATVTFDEKNEVFHINATRLQHTWAEGYFKGLHGK,-0.172
4,HMGEVPPGWSVEALAAIERDLAHHVGPVARVLVQRGARLHTTTDDLRSALANAITDDLARRRFMQP,-0.635
5,HMGFEALRSRHRITAREMEVLQHMLAGRSNAEIGHTLGLSERTVKTHITSIFNKLGVDSRAQLGYMLK,0.366
6,HMGFLTKTQRLEILLHLKDEPYYNVEKLKELIKNRYGIVYQSSQSYYDLLKEAGLSWHQTQA,0.00834
7,HMGFVTVTEVDTTADLKLARVYVSVLGPEEQWAKSFTALESARGFVWNWLRKHLDLRVTPQLAF,-1.74
8,HMGGASVTDQQIRDFVSAHTDDPMAIYKAAVANGISSARLAQVTGISIADIEAFVRKNNLPSF,-0.206
9,HMGGEEINMINLVGLSQSEAENQLAKLKLKIGQVTAEYSDKPSGTVLKQSISANNKVKKGADIDIVVSKG,0.207
10,HMGGELLSLRRIGTLTGISYPTLLRYVARYGEQIPQTGTGRSRRFPPAAVPVFQELRATRGRAPRATA,0.0768
11,HMGGEPKALLFAGVETREMAEITQRLEAADIPYEIREDGGSIYVARSEVFNARMMLSADGLPS,0.233
12,HMGGFNATTLQNIEELRRSLSDADQFGRHEVIETIGGSDSRAGKLLKKMLEAGIIEQVKGHGKGRYRFKRT,0.0979
13,HMGGGEYTVAKGDTLWKIAAQTLGSPTRYAEIYNLNKDVIEETARGRGKRDSSNGHWLFPGTALKIPGT,-0.234
14,HMGGGFLVPSLVGKSLEEARSLSELRGFKLEVGDYVISSEYPAGRVTRQNPANGAKGQEGDVIKVEVSS,0.153
15,HMGGGRELGLDPETGKKISVRLGKFGPFVQLGESGEEDKPVFANLGKNQSIATLSLEEAIALLARPK,0.189
16,HMGGGVSSSLAGNVFKVLLPAGSVVEQGQAVIVLEAMKMETEVNAPKSGSVSSVFVNEGDTVEVGDLLFAI,-0.162
17,HMGGKWKAIIIYHLKNGPKRFGELRRALISSTETVLSNQLKQLEQDGLVSRQVFGTKPPLKTVYSLTDFG,-0.906
18,HMGGKWKLRILLALENSAQDALRYGEIKNIVSGITDMMLSQSLRELTADGLIERRQYQEIPPKVEYRLS,-0.868
19,HMGGKWKPIILYYININSVARYSELKRFIPSINERMLTRQLRELEEDNLIERKVYPIVPPKVEYRLTEYGK,0.0222
20,HMGGKWSMPIIYILSKGKMRFKELERSVEGINTRMLVKELKNMEANGIVTREVFPTVPPTVEYALT,-0.178
21,HMGGKYKGVIIGHLIDKTLRYNELQKLISHATPKMLIQQLKELEADGIIQRKLYPVVPPKTEYSLTERG,-0.0376
22,HMGGLAEGTKITLQNTVNVRASMGEDAEKIGTAYAGEKVTVIMSYAEGWTKVTWNDKTGYIKTSLL,-1.04
23,HMGGLAHPASGEEMEHLFAHLEGELLKSGFLFPPDKAAGMMRNIRAMLTRADFTDQEVRTLRGMIVALSRG,-0.794
24,HMGGNDALEIAKSNPQVIEVLGEPVTKDGMGSYSVNYKNGHKTSEATIPIEGPNGTATLHVKTSGSDDAL,0.22
25,HMGGNKILTWKTDAATTRNQVPINERKEGLEISYKNEERNWVAEKYVGTSFSDDKWGVDYNWNQD,-0.559
